In paper PMC7596504, “Molecular mechanism of the MORC4 ATPase activation” (Nature Communications, 2020):

Columns and labels:
O’RangeRuler 5 bp ladder = test: EMSA with DNA ladder (minimum DNA length); format: binding; conditions: 5 bp ladder 50 ng, pH 7.5, 150 mM NaCl
Description: EMSA experiments were performed essentially as described. In brief, increasing amounts of WT or mutant CW or ATPaseCW cassette of MORC4 were incubated with 147 bp 601 DNA (5 pmol) or 50 ng of O’RangeRuler 5 bp ladder (Thermo Scientific) in a DNA-binding buffer containing 20 mM Tris-HCl (pH 7.5), 150 mM NaCl, 2.5 mM MgCl2, and 2 mM DTT for 0.5 h on ice. The reaction mixtures were loaded on 5% native polyacrylamide gels, and electrophoresis was performed in 0.2× Tris-borate-EDTA (TBE) buffer at 100 V for 1.2 h on ice. Gels were stained with SYBR Gold (Invitrogen).

NCP147 = test: FRET, LexA titration into Cy3-Cy5 labeled NCP147; format: binding; conditions: addition of MORC4 ATPaseCW
Description: Histone octamers unlabeled or labeled with Cy5 at H2AK119 were prepared as previously described. NCPs were reconstituted by combining octamer with 1.25× excess DNA and performing slow salt dialysis. Free DNA was then separated from fully reconstituted NCPs by sucrose gradient purification. NCPs for fluorescence polarization assays were reconstituted from unlabeled octamer and 207 bp DNA containing the 601 Widom sequence flanked with a 30 bp linker on either side and internally labeled with Fluorescein 27 bp in from the 5′ end. Cy3-Cy5 labeled NCPs for FRET assays were reconstituted with Cy5 labeled octamer plus either 147 bp 601 Widom DNA containing a LexA transcription factor binding site at bases 8–27[34], or 252 bp DNA containing the 601 Widom sequence with a 75 bp linker at the 3′ end, a 30 bp linker at the 5’ end, and a Gal4 transcription factor binding site at bases 8–26 in the 601 Widom sequence. The 147 bp LexA-binding DNA was labeled with Cy3 on the 5′ end, and the 252 bp Gal4-binding DNA was internally labeled with Cy3 34 bp in from the 5′ end.
LexA was expressed in E. coli, separated from genomic DNA and the proteome by polyethyleneimine precipitation, and salted out with ammonium sulfate. LexA was resuspended in buffer A (20 mM potassium phosphate pH 7, 0.1 mM EDTA, 10% glycerol, 1 mM DTT) + 200 mM NaCl and purified by a linear gradient to A + 800 mM NaCl over either a cellulose phosphate or HiTrap Heparin HP column. […]
Cy3-Cy5 NCP FRET efficiency measurements were carried out on a Horiba Scientific Fluoromax 4. […] LexA titrations were carried out in 20 mM Tris pH 7.5, 75 mM NaCl, 10% glycerol, 0.00625% Tween 20 buffer with 5 nM 147 bp Cy3-Cy5 NCPs mixed in 20 µL reaction volumes and allowed to incubate for 5 mins at 4 °C before FRET of the sample was measured. […] Gal4 (1–147) titrations were carried out in 10 mM Tris pH 8, 130 mM NaCl, 10% glycerol, 0.0075% Tween 20 buffer with 1 nM 252 bp Cy3-Cy5 nucleosomes mixed in 60 µL reaction volumes and allowed to incubate for 10 mins at room temperature before FRET of the sample was measured. […]

effect on binding of LexA to NCP147 (NCP147): decrease in binding of LexA to NCP147
B1: ATPaseCW: ATPaseCW cassette (aa 29–486) of human MORC4 (Q8TE76) (protein)
chain: GIRLSTMSPRYLQSNSSSHTRPFSAIAELLDNAVDPDVSARTVFIDVEEVKNKSCLTFTDDGCGMTPHKLHRMLSFGFTDKVIKKSQCPIGVFGNGFKSGSMRLGKDALVFTKNGGTLTVGLLSQTYLECVQAQAVIVPIVPFNQQNKKMIITEDSLPSLEAILNYSIFNRENDLLAQFDAIPGKKGTRVLIWNIRRNKNGKSELDFDTDQYDILVSDFDTEEKMTGGVTSELPETEYSLRAFCGILYMKPRMKIFLRQKKVTTQMIAKSLANVEYDTYKPTFTNKQVRITFGFSCKNSNQFGIMMYHNNRLIKSFEKVGCQVKPTRGEGVGVIGVIECNFLKPAYNKQDFEYTKEYRLTINALAQKLNAYWKEKTSQDNFETSTVARPIPKVPDQTWVQCDECLKWRKLPGKIDPSMLPARWFCYYNSHPKYRRCSVPEEQELTDEDLCLSKAKKQE
modifications: left off: GST, end not stated, cleaved
minimum DNA length for appreciable interaction (O’RangeRuler 5 bp ladder): ≥ 30 bp
